In a protein production outcome set (Wang et al. 2014):

Assay: label from the status in PepcDB records
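Also: failed if final PepcDB status was selected cloned or expressed and not failed if soluble or beyond.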

Row | Sequence | protein production
1 | MGQPSDLTESTLRFSSLDPLHPPVISQLTAIAKRIRRNSLHLPTIWQEAVDSIGSTLGVSRCLLLTKDFQSRHLQIEAEFCQPTVTAFAALIVPEESEIWRQLFEQHQPITLYNVQFQGEDLGGLWIFPTLYQDQANGYLCLQQVGPAPGPWHPETEALLQELAEQTGTAIAHATLYQELTQATKAAEEASRLKSEFLASTTHELRTPLNGIIGFLRLILDDMADSEAEKHEFVEEAYQSALLLLNLINDILDLAKIEAGRVGIELEVVDFSEVLQATENFALPQAQNKGLSFNLTAPNQGPLLVYGNQRWLLQVMLNIVGNAIKFTHEGGITVAVEVMPRTVLWEGVQKPGLLKVSVGDTGIGVSLEQQSKLFKKFVQIDGSHSKAYGGTGLGLVISQKLVETMGGKVAFFSMGEGLGSTVTFTVLLEELP | failed
2 | MGQQELAFGGGEFHSLWSCRFGAATLARRGCAFRNALAIMRGFPSALAGVRRTMHTLQQLRSGELAGATRLDLSCGLREFPREIFELADSLEVLNLSGNALDSLPDDLGRLHRLKVLFCSANDFDELPAAVGDCPALSMVGFKSNRIERVPAAALPPALRWLILTDNRIATLPEELGRRPLQKLMLAGNRLEALPESMAACEGLELLRIAANRFQRLPAWLATLPRLAWLAYAGNPLCRLPALADSGIAALDWSELSLDGLIGEGASGVIHRAGWHQPDGSTRTVALKLFKGEVTSDGTPASEMAACLAAGRHAQLIEVLGQLAGHPQGRDGLVLELLDDAYRNLAGPPSLESCTRDVYPPGLRFELATALRLAASLAALMAHLHGRGISHGDFYAHNILWREDGACLLGDFGAASFLPDDAVLAGALRRLEVRAFACLLEELLERSEAPPGQASLSAALVELQRRCALPRVSERPDFGEIQAILRDLAARSQAFPQVR | failed
3 | MGQSIKNNFLLNLSTTITGLLFPLITFPYASRILMADGIGQVQFFQSIIDYVSLCTALGIPLYAVREIARIRDNKELRSRTTIEILLLHAILTLVGYIVVFILAKTVAKIEIDASLFFLLSTTLFFNTIGVAWFYQAIEDFKYITLRSLFVRILSLVALFIFVKTKQDLFYYAGILVIGTVGNNIFNFFRLRKYIKLSKGEFKRLNLLRHLIPALKIFILNLVISIYVNLDSVMLGFLKNEESVGYYAAATRLTKAILGIVSSLGAVLLPRFSNMITNGQKEEFQLLANKAASFTIALSLPMSVGLIFMAAPIIHIFCGNGFEPSILTLKLVAPIVLFIGLSGIIGMQILYPQGREKYVIISTMVGACINLLINYLLIPQYGQYGAALGTVIAEFMVTVIMILLGRKYLPINILSKQNLHYLIGSIVISILLAFLFVFPLHEVNYLLIGILLSVIVYYAYLLMIKDTLALQLKKLLLSIFKQ | failed
4 | MGQSLPLLIRLIVVIWLTISMVTACPRAPTHLNHGRRTRGDNGYKLIVADGPNGYVPGKTYNLLLLGSRTHLKVQHFTHFTITAEAHTGARRPQAASPRRVGRFQLFSDSLTQFNDRCVNTVSEADDLPKTEVQVMWVAPESGSGCVSLSAMVYEGPRAWFADDGNLSTVICERKPDAAAAQKECCACDEAKYSFVFEGIWSNETHPKDYPFAIWLTHFSDVIGASHESNFSFWGENHIATAGFRSLAEWGSPAALETELRANGPKLRTLIKAAGLWYPNVNQNTSSKFRVDRKHPKVSLVSMFGPSPDWVVGISGLDLCTEDCSWKESMDFDLFPWDAGTDSGISYMSPNSETQPPERMYRITTMYPEDPRAPFYNPKSREMTPLAKLYLRREKIVSRNCDDEFLQALQLEVSDDAEEQDTRAECRVGDYSAWSPCSVSCGKGIRMRSRQYLYPAAADQNKCARQLVAKEMCVAAIPECADGPAQSKDRDDDEGENLANSQSLVGSNGEGAGLCKTSPWSVWSECSASCGIGITMRTRTFVNHLGRKRCPHITIVEKNKCMRPDCTYEQVELPDPQCPTSQWSDWSPCSSTCGRGVTIRTRLLLLENGPDKESCTQRMELHQQKECVNPIDCHINAEQAKDICVQAPDPGPCRGTYMRYAYDPQNQHCYSFTYGGCRGNRNNFLTENDCLNTCNVLRSPYSSRVDQPRACVLSDWSVWSPCSVSCGVGVSESRRYVVTEPQNGGQPCSKRLVKSRSCAMPAC | failed
5 | MGQTAFVVKTESYRLLWDCITYLDETTITKIKELGGLDAIALSHPHYYSTQVEWAETFDVPIYIHEDDKEWVMRPSSRIIYWSGESLQLADGITVHRLGGHFSGGSVLHWEEGNDGKGILLTGDIIQVVADERWVSFMYSYPNLIPLPARKVEEMVNRVKPLQFNRLYNAFHRVVKLEHHHHHH | not failed
6 | MGRGRSSSSSSIESSSKSNPFGASSSTRNLSTDLRLGLSFGTSSGTQYFNGGYGYSVAAPAVEDAEYVAAVEEEEENECNSVGSFYVKVNMEGVPIGRKIDLMSLNGYRDLIRTLDFMFNASILWAEEEDMCNEKSHVLTYADKEGDWMMVGDVPWEMFLSTVRRLKISRANYHY | failed
7 | MGRLSVAPLAQLNRLRVRLSLVFVLFLLLVIGLGAFSINRLSAFHNVAAEISGRWLLSNRIAGDLNNSISDFRATEGELLTARRGKDRGRAEGSLAVLDEEIADAKRRYETIEHDPIELDLYRQFSEQWRAYRELANRVLVLSQRDDKTDAIALYYQESRRAFTVANATLATLTERNVTGANEATQAEAVAYRHARDLIVNAIIVAALLMIAGVLYFVTAVTNPIAELVDRMHRISDNETEIDIPSTERPDEVGEIARAVVRFRDNTVALAQSRATLAEQARTLEITLANERRMAELQRNFVSMVSHEFRTPLTVIDGYAQRLSHIKPPLSLEAVQDRSSRIRAAVRRMTALIEDMLGASQVLDLATPGAFQRTEFSLHLLVHEVCEMHRESSPDAQIVEQWHADVPEVFHGDARLLFQAVSNLIGNAVKYSPPKTPVSVDVSMESGAILICVADQGIGIPEKDLGHVFERYVRGANVTGTAGAGVGLYIVRLAAELHGGTVSVRSAEGTGSRFLLRLPEAPAPAPLSA | failed
8 | MGRSAVYTILTTGYVGSTGPGVAATVSYVADGGRHVVFDPGMVASRDHILGPLAELGLGPDDITDVVLSHHHPDNTMNVGLFGRATVHDHKVEYLGDQWRNRDAEGYELTPSLRLIRTPGHSLEDITLLAGTDTGVVAFAGDLWWHSDGPADDPVAPDREVLRASRLRVLAAADLIVPGHGSPLEHHHHHH | failed
9 | MGRVYYGGVERTYLYRGRILNLALEGRYEIVEHKPAVAVIALREGRMLFVRQMRPAVGLAPLEIPAGLIEPGEDPLEAARRELAEETGLSGDLTYLFSYFVSPGFTDEKTHVFLAENLKEVEAHPDEDEAIEVVWMRPEEALERHQRGEVEFSATGLVGVLYYHAFLRGR | not failed
10 | MGRYKDETPAVRVYTVCDESRYMIVRNVPALGCGDDLMRLFMTYGEVEEFAKRKLDESSFLGNRLQISYAPEYENVNDTKDKLESRRKEVLARLNPQKEKSTSQVTKLAGPALTQTDNVSSQRREMEYQFHRGNAPVTRVSSDQEYFASSSMNQTVKTVREKLNKTREENISSLSHCKQIEESGNQKRLQPSSQTQPEESGNQKRLQPSSQIQPDLKRTRVDNRRRI | failed
11 | MGSASSCRRIYIGTEANQYLAEQTLIYSIRKHLSDPSIEIIPLTQTQQRVGGTRFGFVRFTLPQAMGYQGKALYLDADQLALTDLAPIFDLLPDDKAIACVYEAEGLYNGKPHVQTWHTSVMLLDCEQLAWQPDELFATVVPNKQEPKPGQIRYRNFMELQWFEQERIAKLPPSWNHFNIVTPETNIVHFSHVRSQPWKNPRHELTDFWLGYLKEAIAAGYLRRRDVVAAVARGHVHPWTLKAIA | failed
12 | MGSCCSCLNRDSVPDNHPTKFKVTNVDDEGVELGSGVMELTQSELVLHLHRREAVRWPYLCLRRYGYDSNLFSFESGRRCQTGQGIFAFKCSRAEEIFNLLQDLMQCNSINVMEEPVIITRNSHPAELDLPRAPQPPNALGYTVSSFSNGCPGEGPRFSAPRRLSTSSLRHPSLGEESTHALIAPDEQSHTYVNTPASEDDHRRGRHCLQPLPEGQAPFLPQARGPDQRDPQVFLQPGQVKFVLGPTPARRHMVKCQGLCPSLHDPPHHNNNNEAPSECPAQPKCTYENVTGGLWRGAGWRLSPEEPGWNGLAHRRAALLHYENLPPLPPVWESQAQQLGGEAGDDGDSRDGLTPSSNGFPDGEEDETPLQKPTSTRAAIRSHGSFPVPLTRRRGSPRVFNFDFRRPGPEPPRQLNYIQVELKGWGGDRPKGPQNPSSPQAPMPTTHPARSSDSYAVIDLKKTVAMSNLQRALPRDDGTARKTRHNSTDLPL | not failed
13 | MGSIDRYIFRTTLASFALVLVSLTGVIWITQALRGIDLMTSQGQTILTFLGITSLVVPALVLIISPIALMIAISHTLNKLATDSEIIVMNAAGFSPFRLFYPFFYATCVVALLVAFIAAYLAPDGMRRIKQWDAEITADVLTNILQPGRFAQLDKNLTIRIRERLPGGILAGIFIDDRRDPNERVSIVAEHGEVMKNDTGSFLVLETGNLQRFEVGKRDPALVAFGRYGFDMSKFSGQGRDVTLGIRERYLWELFSPSEDDPVYKQIPGQFRSALHDSLLAPIYPFAFAVLTFAFLGAPRTTRQSRNFSIGSSIVAVFGLRMAGFACSVMAVKSPAAVLVQYAMVLGAIGVGMWMIVGGIVVEPPPRLMEAINRSNARIARLFGRPATA | failed
14 | MGSLVHVKEATVITPSDQTPSSVLSLSALDSQLFLRFTIEYLLVYPPVSDPEYSLSGRLKSALSRALVPYFPFSGRVREKPDGGGGLEVNCRGQGALFLEAVSDILTCLDFQKPPRHVTSWRKLLSLHVIDVLAGAPPLVVQLTWLRDGGAALAVGVNHCVSDGIGSAEFLTLFAELSKDSLSQTELKRKHLWDRQLLMPSPIRDSLSHPEFNRVPDLCGFVNRFNAERLVPTSVVFERQKLNELKKLASRLGEFNSKHTSFEVLSAHVWRSWARSLNLPSNQVLKLLFSVNIRDRVKPSLPSGFYGNAFVVGCAQTTVKDLTEKGLSYATMLVKQAKERVGDEYVRSVVEAVSKERASPDSVGVLILSQWSRLGLEKLDFGLGKPVHVGSVCCDRYCLLLPIPEQNDAVKVMVAVPSSSVDTYENLVTSPNA | failed
15 | MGSRDLISSLPDEILGKVLSLLPTKRAASTAVLSKRWNNLPALVDKLDINDAIGGPGGFPEFIDKTLALLTNSTTIKRTSLNNEFQYGESQVNTWIRSFLERGCLQLYLNAQSLYTIDTEFFTSNTLVELTITGGFSPDGLLPPGGVFFPKLKTLSLVLMTFVDSDMYELFISGCPLLEEFLLRNDEIEIPPVWNALVSSPSIKRLTIVHHFPNYREAHDGCWFRTPNLVYLDYSSYVPDWYEVDLGSLVEARLDLRSWERLRDEKAGGYGDCDSVYDDEEYPDDPILGDVTNLVTGLSNIKTLHLSPDSLEVFYFCCKSMPVFHNLLTLSFESAKKEAGQCCHFSSISLLT | failed
16 | MGSSARFRGRTDTMLLTRFNPENGTITVLSIPRDTRVEIPGYGTSKINAANVYGDVELTVQVVSQTLNYTPIDRYIRINTDAFRELVDLVGGVEVNVPKRMVYTDHTQKLYIDLQPGLQTLNGEQAEGFVRFRYDELGDIGRAQRQQLLIKALQEKLANPVMLTQLPKLYSVLQKYVDTDLTFAELMAIAQFSLRIQPDNLHLILLPGHFSGDGYGTSYWLPDYDRIDRVVAEHFSDRPSKLVDQRGSETGTLRIALQNASGSSGAAQDMADFLARHGYTNVLISEDWYQQTSETEIVAQQGDLGAAQVIRSVLGMGRVSANSTGVLSSDITIRIGRDWAAVLHLEHHHHHH | failed
17 | MGSSGDLANSAERKLDDEKKRCDWRFTDNTPLIAACLLTGAVVLGVHYISICKDRTDISLPTLMESIESKCRSLGDAFNASAPESVLHPVPTQIGVAIWVAREEWSLPVHDTLDRIEKVVSGAGNRKQQFIQRIVRVSQLGSDGNLEKSSSSSTKWGGSSKVSQDPLANAAIKQQLGLSVAKHAYAVSLKEELLMHTISFFAAPPSAAKSVRCFLFDDKRAYCTVSTEMGMETTKREVEAAVATLLANWLEIENFRDANATQRWAMMRKVRGCHYALRALRQLKMSVDAHPEMPVPEGVRGAADRLEKLVRESDFAKLARAAADLQFHQLLLPQIYIPWDQAVVNHLSILMPVYGVITLAVRLIKENRKRAQVVQNS | failed
18 | MGSSHHHHHHSSGRENLYFQGVKSEDQLVHICSREEWRTAEREGSRVPATFRADGFVHLSTPAQVHLPANRLFAGRTDLVLLRLDPTALGAPVKWEPGVPADPASMLFPHLYGPLPVAAVTGVEEYRPDADGTFPARR | not failed
